Measured values from EP4806514A2 (Lepu Biopharma Co., Ltd., dated 2025).

T1: human CDH16 protein (hCDH16-his, Novoprotein, Cat. No. CJ16) (human, UniProt O75309 19-786)
T1 construct: Bought; also called human CDH16-his
T1 sequence (looked up): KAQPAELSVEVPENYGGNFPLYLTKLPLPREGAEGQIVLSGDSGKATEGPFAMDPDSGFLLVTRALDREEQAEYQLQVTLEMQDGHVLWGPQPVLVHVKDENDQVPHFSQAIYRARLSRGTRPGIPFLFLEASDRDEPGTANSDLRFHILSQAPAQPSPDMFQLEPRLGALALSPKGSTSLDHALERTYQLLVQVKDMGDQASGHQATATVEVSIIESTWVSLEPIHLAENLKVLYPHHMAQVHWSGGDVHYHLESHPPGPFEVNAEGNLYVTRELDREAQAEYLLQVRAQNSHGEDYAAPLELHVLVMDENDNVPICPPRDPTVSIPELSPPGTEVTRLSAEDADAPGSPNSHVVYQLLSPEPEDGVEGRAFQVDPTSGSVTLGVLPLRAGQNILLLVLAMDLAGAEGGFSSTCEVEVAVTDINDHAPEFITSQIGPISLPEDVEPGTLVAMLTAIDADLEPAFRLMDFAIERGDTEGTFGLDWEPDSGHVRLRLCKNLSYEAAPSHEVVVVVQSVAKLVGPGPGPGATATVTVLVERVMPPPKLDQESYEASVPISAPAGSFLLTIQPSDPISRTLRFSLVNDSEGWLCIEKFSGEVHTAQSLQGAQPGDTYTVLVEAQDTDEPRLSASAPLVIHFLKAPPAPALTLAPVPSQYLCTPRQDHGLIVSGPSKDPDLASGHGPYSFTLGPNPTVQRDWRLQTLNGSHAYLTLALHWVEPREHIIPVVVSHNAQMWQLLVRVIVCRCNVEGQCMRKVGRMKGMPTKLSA

T2: human CDH17, full length, expressed on cells (HEK293-hCDH17); AsPC-1, HCT-8, AGS, LoVo, KATO III, HT-29 tumor … (human, UniProt Q12864 23-832)
T2 construct: also called human CDH17 expressed on tumor cells
T2 sequence: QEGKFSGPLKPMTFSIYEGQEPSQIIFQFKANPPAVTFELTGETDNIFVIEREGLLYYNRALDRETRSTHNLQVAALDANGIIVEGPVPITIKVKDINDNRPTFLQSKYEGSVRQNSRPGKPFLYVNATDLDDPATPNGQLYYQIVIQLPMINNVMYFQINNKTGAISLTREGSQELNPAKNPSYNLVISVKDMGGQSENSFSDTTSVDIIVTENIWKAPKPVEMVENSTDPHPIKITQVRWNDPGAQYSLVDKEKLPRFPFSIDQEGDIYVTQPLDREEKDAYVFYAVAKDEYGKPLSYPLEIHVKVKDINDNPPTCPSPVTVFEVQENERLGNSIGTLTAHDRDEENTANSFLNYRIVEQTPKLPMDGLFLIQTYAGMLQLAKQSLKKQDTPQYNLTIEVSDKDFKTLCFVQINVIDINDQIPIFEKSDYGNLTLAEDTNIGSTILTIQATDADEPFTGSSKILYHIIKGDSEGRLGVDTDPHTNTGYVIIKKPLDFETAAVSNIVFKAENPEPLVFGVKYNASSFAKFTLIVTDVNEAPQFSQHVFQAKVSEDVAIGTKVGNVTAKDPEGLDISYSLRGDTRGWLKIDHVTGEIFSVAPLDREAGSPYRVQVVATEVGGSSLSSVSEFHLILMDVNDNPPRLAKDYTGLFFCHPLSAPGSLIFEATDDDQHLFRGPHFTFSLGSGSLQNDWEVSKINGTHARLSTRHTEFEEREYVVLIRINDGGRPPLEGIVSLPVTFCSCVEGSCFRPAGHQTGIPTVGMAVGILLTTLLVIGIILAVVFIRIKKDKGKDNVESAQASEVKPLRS

T3: hCDH17-his (full length extracellular domain of human CDH17, Q23-M787, his tag at the C-terminal) (human, UniProt Q12864 23-787)
T3 construct: Limits of the construct (UniProt Q12864, Q23-M787, C-terminal his tag); also called human CDH17-his protein; human CDH17 protein
T3 sequence: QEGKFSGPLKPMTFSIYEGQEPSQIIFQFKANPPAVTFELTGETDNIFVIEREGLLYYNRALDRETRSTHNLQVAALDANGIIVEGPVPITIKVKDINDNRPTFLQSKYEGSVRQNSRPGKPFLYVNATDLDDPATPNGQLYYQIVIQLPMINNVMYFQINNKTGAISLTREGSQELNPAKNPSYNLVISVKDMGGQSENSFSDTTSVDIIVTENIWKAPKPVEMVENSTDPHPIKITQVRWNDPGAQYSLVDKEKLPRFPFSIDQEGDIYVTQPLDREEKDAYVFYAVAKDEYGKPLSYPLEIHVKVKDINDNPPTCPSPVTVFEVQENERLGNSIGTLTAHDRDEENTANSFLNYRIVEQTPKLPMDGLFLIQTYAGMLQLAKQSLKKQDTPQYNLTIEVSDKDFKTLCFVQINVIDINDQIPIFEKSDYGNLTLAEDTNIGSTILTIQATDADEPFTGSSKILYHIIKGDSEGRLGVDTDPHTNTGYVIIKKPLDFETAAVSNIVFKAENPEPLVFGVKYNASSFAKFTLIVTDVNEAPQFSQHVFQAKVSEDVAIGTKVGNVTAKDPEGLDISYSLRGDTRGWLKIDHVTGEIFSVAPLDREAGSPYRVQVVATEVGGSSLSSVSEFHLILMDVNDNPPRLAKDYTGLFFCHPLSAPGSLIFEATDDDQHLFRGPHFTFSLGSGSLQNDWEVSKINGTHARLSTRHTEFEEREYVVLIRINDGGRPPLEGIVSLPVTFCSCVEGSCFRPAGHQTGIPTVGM


Columns and labels:
[1] = molecular target: T1, human CDH16 protein (hCDH16-his, …); assay: ELISA, hCDH16-his coated at 1 ug/mL
[2] = molecular target: T2, human CDH17, full length, expressed on …; assay: flow cytometry, HEK293-hCDH17 cells
[3] = molecular target: T3, hCDH17-his (full length extracellular …); assay: SPR (Biacore 8K), antibody captured on Protein A chip, hCDH17-his injected
[4] = molecular target: T3, hCDH17-his (full length extracellular …); assay: SPR (Biacore 8K), two doses, antibody captured on Protein A chip, hCDH17-his at 25 nM and 100 nM

binding result [2]	binding result [3]	binding result [4]	Binder	binding result [1]
–	–	–	29H8D3 chimeric mAb (antibody, V domains shown, Mouse variable regions fused to human IgG1 constant region) VH: QVQLQQSDAELVKPGASVKISCKVSGYTFTDHTIHWMKQRPEQGLEWIGYIYPRDGYTKYNEKFKDKATLTADKSSSTAYIQLNTLTSEDSAVYFCARFYYGYWYFDVWGTGTTVTVSS VL: DIVMTQAAPSVPVTPGESVSISCRSSKSLLRSNGNTYLYWFLQRPGQSPQVLIYRMSNLASGVPDRFSGSGSGTAFTLRISRVEAEDVGVYYCMQHLEYPFTFGAGTKLELK	no binding (tested: titrated from 100 nM)
binds	binds	–	67A11B11 chimeric mAb (antibody, V domains shown, Mouse variable regions fused to human IgG1 constant region) VH: EIQLQQSGPELVKPGASVKVSCKASGYAFTTYNMYWVKQSHGQSLEWIGYIDPYNGVTIYNQKFKGTATLTVDKSSSTAYMHLNSLSSEDSAVYYCTITAATLDAMDYWGQGTSVTVSS VL: DIVMTQSHKFMSTSVGDRVSITCKASQNVATAVAWYQQKPGQSPKVLIYWTSTRHNGVPDRFTGSGSGTDFTLTISNVQSEDLADYFCQQYNSHPLTFGAGTRLELK	no binding (tested: titrated from 100 nM)
binds	binds	–	20C3E8 chimeric mAb (antibody, V domains shown, Mouse variable regions fused to human IgG1 constant region) VH: QVQLQQSGAELARPGASVKLSCKASGYTFTSYGISWVKQRTGQGLEWIGEIYPRSGNTYYNEKFKGKATLTADKSSSTAYMELRSLTSEDSAVYFCSRLDYGTSPFDYWGQGTTLTVSS VL: NIVMTQSPKSMSMSVGERVTLSCKASENVGTFVSWYQHKPEQSPKLLIYGASNRYTGVPDRFTGSGSATDFTLTISSVQAEDLADYHCGQSYSYPYTFGGGTKLEIK	no binding (tested: titrated from 100 nM)
–	–	binds	29H8D3-z12p10 (antibody, V domains shown, PTM-removed variant of 29H8D3-z12; VH is that of 29H8D3-z12) VH: QVQLVQSGAEVKKPGASVKVSCKASGYTFTDHTIHWMRQRPGQGLEWIGYIYPRDGYTKYNEKFKDRATLTADTSTSTAYMELRSLRSDDTAVYYCARFYYGYWYFDVWGQGTTVTVSS VL: DIVMTQSPLSLPVTPGEPASISCRSSKSLLRSNGNTYLYWFLQKPGQSPQVLIYRMSNLASGVPDRFSGSGSGTDFTLKISRVEAEDVGVYYCKQHLEYPFTFGQGTKLEIK	–
–	–	binds	29H8D3-z12p13 (antibody, V domains shown, PTM-removed variant of 29H8D3-z12; VH is that of 29H8D3-z12) VH: QVQLVQSGAEVKKPGASVKVSCKASGYTFTDHTIHWMRQRPGQGLEWIGYIYPRDGYTKYNEKFKDRATLTADTSTSTAYMELRSLRSDDTAVYYCARFYYGYWYFDVWGQGTTVTVSS VL: DIVMTQSPLSLPVTPGEPASISCRSSKSLLRSNGNTYLYWFLQKPGQSPQVLIYRMSNLASGVPDRFSGSGSGTDFTLKISRVEAEDVGVYYCSQHLEYPFTFGQGTKLEIK	–
–	–	binds	29H8D3-z12p15 (antibody, V domains shown, PTM-removed variant of 29H8D3-z12; VH is that of 29H8D3-z12) VH: QVQLVQSGAEVKKPGASVKVSCKASGYTFTDHTIHWMRQRPGQGLEWIGYIYPRDGYTKYNEKFKDRATLTADTSTSTAYMELRSLRSDDTAVYYCARFYYGYWYFDVWGQGTTVTVSS VL: DIVMTQSPLSLPVTPGEPASISCRSSKSLLRSNGNTYLYWFLQKPGQSPQVLIYRMSNLASGVPDRFSGSGSGTDFTLKISRVEAEDVGVYYCNQHLEYPFTFGQGTKLEIK	–
–	–	binds	29H8D3-z12p21 (antibody, V domains shown, PTM-removed variant of 29H8D3-z12; VH is that of 29H8D3-z12) VH: QVQLVQSGAEVKKPGASVKVSCKASGYTFTDHTIHWMRQRPGQGLEWIGYIYPRDGYTKYNEKFKDRATLTADTSTSTAYMELRSLRSDDTAVYYCARFYYGYWYFDVWGQGTTVTVSS VL: DIVMTQSPLSLPVTPGEPASISCRSSKSLLRSNGNTYLYWFLQKPGQSPQVLIYRMSNLASGVPDRFSGSGSGTDFTLKISRVEAEDVGVYYCIQHLEYPFTFGQGTKLEIK	–
–	–	binds	29H8D3-z12p16 (antibody, V domains shown, PTM-removed variant of 29H8D3-z12; VH is that of 29H8D3-z12) VH: QVQLVQSGAEVKKPGASVKVSCKASGYTFTDHTIHWMRQRPGQGLEWIGYIYPRDGYTKYNEKFKDRATLTADTSTSTAYMELRSLRSDDTAVYYCARFYYGYWYFDVWGQGTTVTVSS VL: DIVMTQSPLSLPVTPGEPASISCRSSKSLLRSNGNTYLYWFLQKPGQSPQVLIYRMSNLASGVPDRFSGSGSGTDFTLKISRVEAEDVGVYYCQQHLEYPFTFGQGTKLEIK	–
–	–	binds	29H8D3-z12p14 (antibody, V domains shown, PTM-removed variant of 29H8D3-z12; VH is that of 29H8D3-z12) VH: QVQLVQSGAEVKKPGASVKVSCKASGYTFTDHTIHWMRQRPGQGLEWIGYIYPRDGYTKYNEKFKDRATLTADTSTSTAYMELRSLRSDDTAVYYCARFYYGYWYFDVWGQGTTVTVSS VL: DIVMTQSPLSLPVTPGEPASISCRSSKSLLRSNGNTYLYWFLQKPGQSPQVLIYRMSNLASGVPDRFSGSGSGTDFTLKISRVEAEDVGVYYCTQHLEYPFTFGQGTKLEIK	–
–	–	binds	29H8D3-z12p17 (antibody, V domains shown, PTM-removed variant of 29H8D3-z12; VH is that of 29H8D3-z12) VH: QVQLVQSGAEVKKPGASVKVSCKASGYTFTDHTIHWMRQRPGQGLEWIGYIYPRDGYTKYNEKFKDRATLTADTSTSTAYMELRSLRSDDTAVYYCARFYYGYWYFDVWGQGTTVTVSS VL: DIVMTQSPLSLPVTPGEPASISCRSSKSLLRSNGNTYLYWFLQKPGQSPQVLIYRMSNLASGVPDRFSGSGSGTDFTLKISRVEAEDVGVYYCGQHLEYPFTFGQGTKLEIK	–
binds	binds	–	61C7F12 chimeric mAb (antibody, V domains shown, Mouse variable regions fused to human IgG1 constant region) VH: EVQLVESGGGLVKPGGSLKLSCAASGFTFSSYAMSWVRQTPEKRLEWVATINIGGSYTYYPDSVKGRFTISRDNAKNTLYLQMSSLRSEDTAMYYCARQEGRYWYFDVWGAGTTVTVSS VL: QIVLTQSPAIMSASLGERVTMTCTASSSVSSSYLHWYQQKPGSSPKLWIYSTSNLASGVPARFSGSGSGTSYSLTISSMEAEDAATYYCHQFHRSPYTFGGGTKLEIK	no binding (tested: titrated from 100 nM)
